Laboratory results reported in IntAct's records for PubMed 15143060.

B1: ADP-ribosylation factor-binding protein GGA1 (Homo sapiens), Q9UJY5 (parent)
chain: MEPAMEPETLEARINRATNPLNKELDWASINGFCEQLNEDFEGPPLATRLLAHKIQSPQEWEAIQALTVLETCMKSCGKRFHDEVGKFRFLNELIKVVSPKYLGSRTSEKVKNKILELLYSWTVGLPEEVKIAEAYQMLKKQGIVKSDPKLPDDTTFPLPPPRPKNVIFEDEEKSKMLARLLKSSHPEDLRAANKLIKEMVQEDQKRMEKISKRVNAIEEVNNNVKLLTEMVMSHSQGGAAAGSSEDLMKELYQRCERMRPTLFRLASDTEDNDEALAEILQANDNLTQVINLYKQLVRGEEVNGDATAGSIPGSTSALLDLSGLDLPPAGTTYPAMPTRPGEQASPEQPSASVSLLDDELMSLGLSDPTPPSGPSLDGTGWNSFQSSDATEPPAPALAQAPSMESRPPAQTSLPASSGLDDLDLLGKTLLQQSLPPESQQVRWEKQQPTPRLTLRDLQNKSSSCSSPSSSATSLLHTVSPEPPRPPQQPVPTELSLASITVPLESIKPSNILPVTVYDQHGFRILFHFARDPLPGRSDVLVVVVSMLSTAPQPIRNIVFQSAVPKVMKVKLQPPSGTELPAFNPIVHPSAITQVLLLANPQKEKVRLRYKLTFTMGDQTYNEMGDVDQFPPPETWGSL

Variants of: B1
Settings: with arf1_human ARF1, P84077
arf1_human ARF1, P84077, sequence (P84077 whole entry): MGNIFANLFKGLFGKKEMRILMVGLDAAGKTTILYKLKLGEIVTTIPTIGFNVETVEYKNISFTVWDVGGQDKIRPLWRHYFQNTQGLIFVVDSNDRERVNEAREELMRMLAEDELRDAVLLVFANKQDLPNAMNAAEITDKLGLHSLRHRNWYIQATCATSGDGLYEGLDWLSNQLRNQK

effect of a mutation on the interaction	Variant
decreasing interaction	L182A;N194A;I197A
